Assay [1] addresses T1, soluble form of the extracellular domain of human CD40 (Creative BioMart) (human, UniProt P25942 21-193).
T1 construct: Bought
Kind of assay: SPR.

Assay [2] has as its target T2, cynomolgus mesothelin (cynomolgus).
T2 construct: also called cynoMSLN; Cyno MSLN
Kind of assay: SPR. On the technique in general: Surface plasmon resonance follows binding to a sensor surface in real time, without labels.

The target of assay [3] is T3, soluble form of the extracellular domain of cynomolgus (cyno) CD40 (Creative BioMart) (cynomolgus, UniProt G7PG38 21-193).
T3 construct: extracellular domain; also called Cynomolgus CD40
Briefly: SPR.

Assay [4] concerns the target T4, human mesothelin (human, UniProt Q13421 296-580, limits assumed).
T4 construct: also called Human MSLN
Briefly: SPR.

Assay [5] deals with T1, soluble form of the extracellular …. Briefly: SPR. The source holds these as a separate data set.
Assay [6] addresses T4, human mesothelin. Kind of assay: SPR. The source holds these as a separate data set.
Assay [7] deals with T2, cynomolgus mesothelin. Kind of assay: SPR. This is another data set of the same source.
Assay [8] concerns the target T3, soluble form of the extracellular …. Briefly: SPR. This is another data set of the same source.
The target of assay [9] is T5, human CD40 on cells (HEK293 stable transfectants, HEK-Blue CD40 cells, human B cells, monocytic cells, … (human, UniProt P25942 21-277)). Kind of assay: cell-based or functional assay.
Assay [10] has as its target T6, mouse CD40 (mouse, UniProt P27512 20-193, limits assumed).
T6 construct: also called murine CD40
T6 sequence (looked up): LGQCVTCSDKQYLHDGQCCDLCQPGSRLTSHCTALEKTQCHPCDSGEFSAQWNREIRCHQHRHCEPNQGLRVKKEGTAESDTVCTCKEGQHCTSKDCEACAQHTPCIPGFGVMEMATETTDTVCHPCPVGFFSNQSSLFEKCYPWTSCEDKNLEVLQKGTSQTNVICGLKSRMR
Kind of assay: FACS. For orientation: A flow cytometer gives signals particle by particle.

The target in assay [11] is T7, dog CD40 (dog, UniProt Q7YRL5 21-194, limits assumed).
T7 sequence (looked up): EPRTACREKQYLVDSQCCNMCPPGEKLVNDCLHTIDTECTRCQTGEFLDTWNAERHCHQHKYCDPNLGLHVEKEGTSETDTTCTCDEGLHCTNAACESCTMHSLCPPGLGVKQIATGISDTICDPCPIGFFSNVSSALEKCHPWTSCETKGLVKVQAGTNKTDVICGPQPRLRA
Kind of assay: FACS.

The target in assay [12] is T1, soluble form of the extracellular …. Kind of assay: SPR, Ab captured. On the procedure: (§1) CD40 binding kinetics was analyzed by surface plasmon resonance assay with a Biacore T200 instrument (Table 1-5). Briefly, a goat anti-mouse Fc antibody (Pierce) or goat anti-human Fc (Pierce) was immobilized on a CM5 sensor chip, followed by capture of the anti-CD40 antibodies on the test surface. Subsequently, the soluble form of the extracellular domain of human CD40 (Creative BioMart) or cynomolgus (cyno) CD40 (Creative BioMart) was injected, and the binding and dissociation were measured.

The target in assay [13] is T3, soluble form of the extracellular …. Kind of assay: SPR, Ab captured. The method, then: as §1
Assay [14] has as its target T5, human CD40 on cells (HEK293 stable …). Kind of assay: cell-based or functional assay. The source holds these as a separate data set.
Assay [15] deals with CD40 (binding assays of Example 4, Table 4-2). Briefly: antigen binding, format not stated.
In assay [16] the target is T8, MSLN (binding assays of Example 4, Table 4-2) (Homo sapiens (Human), UniProt Q13421 296-598).
T8 construct: also called mesothelin
Kind of assay: antigen binding, format not stated.

Assay [17] concerns the target T6, mouse CD40. Kind of assay: CD40 binding, format not stated.
Assay [18] concerns the target T2, cynomolgus mesothelin. Kind of assay: SPR. This is another data set of the same source.
Assay [19] concerns the target T4, human mesothelin. Briefly: SPR. The source holds these as a separate data set.
The target of assay [20] is T9, mesothelin on cells (endogenous on SN12C, OVCAR3, SW1990); HEK293 cells expressing cell-surface human … (human, UniProt Q13421 296-598).
T9 construct: whole, on cells; also called cell-surface MSLN
Kind of assay: FACS, SN12C (CA125-). The method, then: (§2) The binding of anti-mesothelin affinity matured variants was measured by FACS on the ovarian cancer cell line OVCAR3, the pancreatic cancer cell line SW1990, and the renal cancer cell line SN12C. Both OVCAR3 and SW1990 express CA125, but CA125 expression on SN12C cells was not detected.

Assay [21] concerns the target T9, mesothelin on cells (endogenous on …). Briefly: FACS, OVCAR3 (CA125+). The method, then: as §2
For assay [22], the target named is T5, human CD40 on cells (HEK293 stable …). Briefly: cell-based or functional assay. This is another data set of the same source.
Assay [23] shares this target. Kind of assay: CD40 occupancy on B cells, -MSLN (n = 3).

Like-named read-outs stand apart in the source and are kept apart here. Some results are limits rather than exact numbers.

Results on 7 molecules are retold here after patent US20180194862A1 (AbbVie / Abbott, published 2018).

T5 sequence (P25942 21-277 limits assumed): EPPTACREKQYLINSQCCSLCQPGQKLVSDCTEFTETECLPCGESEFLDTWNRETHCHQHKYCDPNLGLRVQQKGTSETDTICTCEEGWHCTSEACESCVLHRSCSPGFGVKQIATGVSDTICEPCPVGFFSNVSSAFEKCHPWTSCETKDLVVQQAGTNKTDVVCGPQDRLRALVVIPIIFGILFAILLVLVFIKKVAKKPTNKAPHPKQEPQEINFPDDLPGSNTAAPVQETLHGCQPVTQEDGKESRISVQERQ
Chain of CD40 (binding assays of Example 4, Table 4-2) (P25942 21-277): as the sequence (P25942 21-277 limits assumed) above
T1 sequence (P25942 21-193 limits assumed): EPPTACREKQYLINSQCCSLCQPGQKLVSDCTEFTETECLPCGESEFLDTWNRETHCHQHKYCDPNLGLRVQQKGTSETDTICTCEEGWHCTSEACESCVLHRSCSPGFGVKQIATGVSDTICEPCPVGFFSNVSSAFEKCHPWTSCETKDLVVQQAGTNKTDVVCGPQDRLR
T9 sequence (Q13421 other isoform, or with tags, fused parts or gaps limits assumed): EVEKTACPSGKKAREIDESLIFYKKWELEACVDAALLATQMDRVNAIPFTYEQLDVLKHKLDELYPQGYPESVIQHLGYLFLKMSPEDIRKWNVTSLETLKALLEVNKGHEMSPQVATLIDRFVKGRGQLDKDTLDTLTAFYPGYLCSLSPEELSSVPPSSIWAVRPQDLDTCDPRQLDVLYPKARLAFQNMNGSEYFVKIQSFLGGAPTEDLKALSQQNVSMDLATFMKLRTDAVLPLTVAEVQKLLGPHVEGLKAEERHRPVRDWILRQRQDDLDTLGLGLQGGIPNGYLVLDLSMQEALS
T4 sequence (Q13421 other isoform, or with tags, fused parts or gaps limits assumed): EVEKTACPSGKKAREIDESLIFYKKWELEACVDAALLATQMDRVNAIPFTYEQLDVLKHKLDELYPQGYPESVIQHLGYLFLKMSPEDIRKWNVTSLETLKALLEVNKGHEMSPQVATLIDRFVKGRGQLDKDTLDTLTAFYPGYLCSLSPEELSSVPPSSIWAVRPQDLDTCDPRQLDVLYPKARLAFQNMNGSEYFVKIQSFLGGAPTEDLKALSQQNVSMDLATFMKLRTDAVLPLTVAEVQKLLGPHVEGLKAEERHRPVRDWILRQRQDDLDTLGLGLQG

B1: CF3 (bispecific antibody, human IgG1, lambda)
heavy: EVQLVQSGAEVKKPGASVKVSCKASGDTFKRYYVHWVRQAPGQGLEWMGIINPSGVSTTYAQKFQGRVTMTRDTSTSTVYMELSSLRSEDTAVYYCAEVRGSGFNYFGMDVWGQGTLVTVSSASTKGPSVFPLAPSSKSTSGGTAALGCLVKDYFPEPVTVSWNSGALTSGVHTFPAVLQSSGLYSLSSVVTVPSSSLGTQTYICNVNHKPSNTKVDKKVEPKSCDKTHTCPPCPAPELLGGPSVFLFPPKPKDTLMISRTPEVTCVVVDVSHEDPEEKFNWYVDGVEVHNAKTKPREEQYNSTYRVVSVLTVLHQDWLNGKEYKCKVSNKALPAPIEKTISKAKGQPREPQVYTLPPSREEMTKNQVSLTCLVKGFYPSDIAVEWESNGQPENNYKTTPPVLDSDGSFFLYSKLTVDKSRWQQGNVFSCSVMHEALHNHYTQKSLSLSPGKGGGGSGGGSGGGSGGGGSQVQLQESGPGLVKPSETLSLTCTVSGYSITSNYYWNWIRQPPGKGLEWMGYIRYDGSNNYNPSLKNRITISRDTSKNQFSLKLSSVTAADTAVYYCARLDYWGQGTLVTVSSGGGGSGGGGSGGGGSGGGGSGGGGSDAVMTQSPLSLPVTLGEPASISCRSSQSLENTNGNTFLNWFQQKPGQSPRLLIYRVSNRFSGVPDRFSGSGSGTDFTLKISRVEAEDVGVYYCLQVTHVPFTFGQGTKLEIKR
light: SYELTQPPSVSVSPGQTASITCSGDKLGDKYASWYQQKPGQSPVLVIYQDNRRPSGIPERFSGSNSGNTATLTISGTQAMDEADYYCQAWDSDTYVFGTGTKVTVLGQPKAAPSVTLFPPSSEELQANKATLVCLISDFYPGAVTVAWKADSSPVKAGVETTTPSKQSNNKYAASSYLSLTPEQWKSHRSYSCQVTHEGSTVEKTVAPTECS
notes: IgG-scFv
With B1, the Kd (in general, the concentration at which binding is half-saturated) is less than 400 nM in assay [1]; not above 0.29 nM in assay [2]; less than 150 nM in assay [3]; less than 400 nM in assay [4]; 14 nM in assay [5]; 0.59 nM in assay [6]. The Kd in assay [7] was found to be 0.29 nM; in assay [8] it was 8.3 nM. The koff (as a rule, the rate constant with which the complex falls apart) was found to be 0.0096 s⁻¹ in assay [5], 3.1e-05 s⁻¹ in [6], 8.2e-05 s⁻¹ in assay [7] and 0.011 s⁻¹ in assay [8]. The kon – broadly, the second-order rate constant of association – in [5] came out at 690000 M⁻¹ s⁻¹; in assay [6], 52000 M⁻¹ s⁻¹; in [7], 280000 M⁻¹ s⁻¹; in assay [8] it was 1.3e+06 M⁻¹ s⁻¹. In [9], the “Max. IL-12p70, dendritic cells with cell-surface mesothelin” value turned out to be 75 pg/mL.

B2: huAb8-1 (antibody, human IgG1, V domains shown)
VH: EVQLVQSGAEVKKPGSSVKVSCKASGYTFTDYYINWVRQAPGQGLEWIGWIFPGSGSVYCNEQFKGRATLTVDRSTSTAYMELSSLRSEDTAVYFCASSLGKFAYWGQGTLVTVSS
VL: DIQMTQSPSSLSASVGDRVTITCKASQSVVTAVAWYQQKPGKSPKLLIYSASNRYTGVPSRFSGSGSGTDFTLTISSLQPEDFATYFCQQYSSYPYTFGGGTKVEIK
notes: human IgG1, kappa
For B2, in assay [10], the binding result was “no binding”. Moreover, in [11], the binding result is recorded as “no binding”. In assay [12], the affinity, expressed as Kd, was 3 nM; the koff came to 0.0023 s⁻¹; the kon amounted to 770000 M⁻¹ s⁻¹. In addition, in assay [13], the Kd was determined as 7.1 nM, the koff was found to be 0.0071 s⁻¹ and the kon stood at 1e+06 M⁻¹ s⁻¹. The “NF-κB activation EC50, HEK293 CD40 NFκB reporter cells” value in assay [14] came out at 0.14 µg/mL. In addition, it took 0.4 µg/mL to reach a half-maximal effect in assay [15] (EC50).

B3: B39 (bispecific antibody, IgG2)
chain: EVQLQESGPGLVKPSETLSLTCTVSGYSITSNYYWNWIRQPPGKGLEWMGYIRYDGSNNYNPSLKNRVTISRDTSKNQFSLKLSSVTAADTAVYYCARLDYWGQGTTVTVSSDLSGGGGSGGGGSGGGGSGGGGSTGDAVMTQTPLSLSVTPGQPASISCRSSQSLENTNGNTFLNWYLQKPGQSPQLLIYRVSNRFSGVPDRFSGSGSGTDFTLKISRVEAEDVGVYYCLQVTHVPFTFGQGTKLEIKRVERKSSVECPPCPAPPVAGPSVFLFPPKPKDTLMISRTPEVTCVVVDVSHEDPEVQFNWYVDGVEVHNAKTKPREEQFNSTFRVVSVLTVVHQDWLNGKEYKCKVSNKGLPAPIEKTISKTKGQPREPQVYTLPPSREEMTKNQVSLTCLVKGFYPSDIAVEWESNGQPENNYKTTPPMLDSDGSFFLYSKLTVDKSRWQQGNVFSCSVMHEALHNHYTQKSLSLSPGKVDGASSPVNVSSPSVQDIEVQLVQSGAEVKKPGASVKVSCKASGDTFKRYYVHWVRQAPGQGLEWMGIINPSGVSTTYAQKFQGRVTMTRDTSTSTVYMELSSLRSEDTAVYYCAEVRGSGFNYFGMDVWGQGTLVTVSSDLSGGGGSGGGGSGGGGSGGGGSTGSYELTQPPSVSVSPGQTASITCSGDKLGDKYASWYQQKPGQSPVLVIYQDNRRPSGIPERFSGSNSGNTATLTISGTQAMDEADYYCQAWDSDTYVFGTGTKVTVLGQ
notes: scFv-Fc-scFv, huIgG2
Consider B3, for which the EC50 (as a rule, the concentration needed to bring the measured effect to its halfway point) in [15] was determined as 0.5 µg/mL; in assay [16], 7.4 µg/mL.

B4: anti-CD40 antibody (1C10 mIgG1) (antibody, V domains shown)
VH: EVQLVESGGGLVQPGRSLKLSCAASGFTFSNYDMAWVRQAPTKGLEWVASISPSGGRTYYRDSVKGRFTVSRDNAKSTLYLQMDSLRSEDTATYYCARHDGSYFDYWGQGVMVTVSS
VL: DTVLTQSPALAVSPGERVTISCRASESVSTLMHWYQQKPGQQPKLLIYLASHLESGVPARFSGSGSGTDFTLTIDPVEADDTATYYCQESWNDPWTFGGGTKLELK
notes: murine IgG1
Regarding B4, a half-maximal response in assay [17] (EC50) required 0.21 µg/mL.

B5: HuAM15 (antibody, V domains shown)
VH: EVQLVQSGAEVKKPGASVKVSCKASGDTFKRYYVHWVRQAPGQGLEWMGIINPSGVSTTYAQKFQGRVTMTRDTSTSTVYMELSSLRSEDTAVYYCAEVRGSGFNYFGMDVWGQGTLVTVSS
VL: SYELTQPPSVSVSPGQTASITCSGDKLGDKYASWYQQKPGQSPVLVIYQDNRRPSGIPERFSGSNSGNTATLTISGTQAMDEADYYCQAWDSDTYVFGTGTKVTVL
notes: fully human antibody
In assay [18], B5 registered a Kd of 4.5 nM, a koff of 0.00018 s⁻¹ and a kon of 40000 M⁻¹ s⁻¹. In [19], this molecule gave a Kd of 0.31 nM, a koff of 1.3e-05 s⁻¹ and a kon of 44000 M⁻¹ s⁻¹. In assay [20], the EC50 was 0.07 µg/mL and the “Maximum binding (MFI)” value was found to be 9390 MFI. In assay [21], the EC50 was 0.7 µg/mL and the “Maximum binding (MFI)” value was 3550 MFI. The molecule also registered an EC50 in assay [16] of 0.9 µg/mL.

B6: huAb9 A2I (antibody, human IgG1, kappa)
heavy: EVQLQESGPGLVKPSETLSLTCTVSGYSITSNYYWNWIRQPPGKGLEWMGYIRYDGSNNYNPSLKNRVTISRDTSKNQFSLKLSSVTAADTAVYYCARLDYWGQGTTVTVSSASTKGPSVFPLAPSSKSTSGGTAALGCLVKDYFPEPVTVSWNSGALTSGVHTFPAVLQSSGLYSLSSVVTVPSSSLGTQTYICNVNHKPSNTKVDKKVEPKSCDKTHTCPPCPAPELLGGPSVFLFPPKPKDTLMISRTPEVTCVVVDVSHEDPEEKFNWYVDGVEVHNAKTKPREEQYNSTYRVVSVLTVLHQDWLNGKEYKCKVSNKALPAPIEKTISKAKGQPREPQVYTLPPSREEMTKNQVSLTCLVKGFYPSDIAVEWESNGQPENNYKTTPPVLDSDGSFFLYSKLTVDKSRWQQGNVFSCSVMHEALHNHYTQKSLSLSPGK
light: DIVMTQTPLSLSVTPGQPASISCRSSQSLENTNGNTFLNWYLQKPGQSPQLLIYRVSNRFSGVPDRFSGSGSGTDFTLKISRVEAEDVGVYYCLQVTHVPFTFGQGTKLEIKRTVAAPSVFIFPPSDEQLKSGTASVVCLLNNFYPREAKVQWKVDNALQSGNSQESVTEQDSKDSTYSLSSTLTLSKADYEKHKVYACEVTHQGLSSPVTKSFNRGEC
notes: human IgG1 V273E
As for B6, in assay [22], the “B-cell CD23 EC50, +MSLN” value was determined as 2.5 nM; the “B-cell CD23 EC50, -MSLN” value is 1.4 nM; the “B-cell CD86 EC50, +MSLN” value came out at 0.7 nM; the “B-cell CD86 EC50, -MSLN” value stood at 0.35 nM. Also, in assay [22], the “B-cell proliferation EC50, +MSLN” value came to 12 nM; the “B-cell proliferation EC50, -MSLN” value was 4.5 nM; the “moDC CD83 EC50, +MSLN” value was found to be 6.9 nM; the “moDC CD83 EC50, -MSLN” value was 2 nM. In addition, in [22], the “moDC IL-12p70 EC50, +MSLN” value came to 3.4 nM and the “moDC IL-12p70 EC50, -MSLN” value is 12.4 nM. The molecule also came in with an EC50 in [23] of 4.1 nM.

B7: huAb9-5 (antibody, human IgG1, kappa)
heavy: not shown
light: DAVMTQTPLSLSVTPGQPASISCRSSQSLENTNGNTFLNWYLQKPGQSPQLLIYRVSNRFSGVPDRFSGSGSGTDFTLKISRVEAEDVGVYYCLQVTHVPFTFGQGTKLEIKRTVAAPSVFIFPPSDEQLKSGTASVVCLLNNFYPREAKVQWKVDNALQSGNSQESVTEQDSKDSTYSLSSTLTLSKADYEKHKVYACEVTHQGLSSPVTKSFNRGEC
notes: human IgG1, kappa
B7: the binding result in assay [10] was “no binding”. The binding result in assay [11] is on record as “no binding”. In assay [12], this molecule returned a Kd of 15 nM, a koff of 0.026 s⁻¹ and a kon of 1.7e+06 M⁻¹ s⁻¹. For the same molecule, in [13], binding was put at a Kd of 13 nM, the koff was determined as 0.024 s⁻¹ and the kon was 1.8e+06 M⁻¹ s⁻¹. Further, the “NF-κB activation EC50, HEK293 CD40 NFκB reporter cells” value in assay [14] came out at 1.13 µg/mL. The molecule also returned an EC50 in assay [15] of 0.2 µg/mL.
